Experimental findings from patent US20090324602A1 (Biogen, published 2009) are described below.

“And” between values parts separate entries of the source, which are not always exact repeats. Equal values may be shown once. Read-outs that look alike come from different tables or passages of the source.

Assay [1] addresses T1, human Fn14, full-length, expressed on the cell surface (human, UniProt Q9NP84 28-129).
T1 construct: Also used for Fn14 on tumour cell lines (WiDr, A375) and in tissue sections; also called huFn14; hu Fn14
Briefly: FACS dilution titration on 293E cells transiently overexpressing human Fn14; value is C (midpoint) of the printed 4-P fit y=(A-D)/(1+(x/C)^B)+D, x in ug/ml.

Assay [2] addresses T2, huFn14-huFc fusion protein (human, UniProt Q9NP84 28-80).
T2 construct: also called hFn14-hFc; bivalent Fn14-Fc; not shown: human Fc
Briefly: competition ELISA on coated huFn14-huFc against a constant amount of biotinylated murine P4A8, OD450; value is C (midpoint) of the printed 4-P fit, x in ng/ml.

Assay [3] addresses T3, rat Fn14, full-length, expressed on the cell surface (rat, UniProt Q9CR75 28-129 (mouse entry)).
T3 construct: also called pEAG2275
Briefly: FACS direct binding titration on surface rat Fn14; value is C (midpoint) of the printed 4-P fit y=(A-D)/(1+(x/C)^B)+D, x in ng/ml.
Source text: (§1) Cells were used in FACS at 2 days post-transfection, staining with monoclonal antibodies of interest (with dilution titration) and gating on green EGFP-positive living cells.

For assay [4], the target named is T1, human Fn14, full-length, expressed on …. Nature of the assay: FACS on WiDr cells.
In assay [5] the target is T4, soluble monomeric human Fn14 protein (ectodomain with myc and His tags) (human).
T4 construct: also called soluble Fn14 protein; soluble human Fn14
Briefly: SPR (Biacore), antibody amine-coupled on CM5, soluble monomeric human Fn14 0.3-30 nM as analyte, 1:1 fit. A general note: Surface plasmon resonance follows binding to a sensor surface in real time, without labels.
Procedure: (§2) Briefly, proteins were diluted to 30 μg/ml in 10 mM acetate, pH 5.0 and 10 μl was injected over chip surfaces that had been activated with a 10 μl injection of 1:1 N-hydroxsuccinimide (NHS): 1-Ethyl-3(3-dimethylaminopropyl)-carbodiimide hydrochloride (EDC). In addition one flow cell in each experiment was left underivitized as a background control. Excess free amine groups were then capped with a 50 μl injection of 1 M Ethanolamine. Typical immobilization levels were ˜1200 RU.
(§3) Concentration series ranging from 0.3 to 30 nM, of human Fn14 were prepared in Biacore buffer #1 (10 mM HEPES pH 7.0+150 mM NaCl+3.4 mM EDTA+0.005% P-20 detergent+0.05% BSA). The amino acid sequence of the soluble Fn14 protein used in these experiments was [sequence] [sequence]. Samples were run over antibody and control surfaces in non-sequential order at a flow rate of 50 μl/min for 5 minutes followed by 15 minutes dissociation in Biacore buffer #1. After each cycle the chip was regenerated with 15 mM NaOH.
(§4) Raw data were normalized by setting the preinjection response to zero on the Y-axis and the injection start to zero on the X-axis for each concentration series. Data were further normalized by subtracting the response on the underivitized surface from the response on the active surfaces and then subtracting the buffer only response on the active surface from the binding data on the same surface (so-called ‘double referencing’ of the data). The global association and dissociation rate constants were then determined for each concentration series by fitting the data using a Marquardt-Levenberg algorithm for 1:1 binding within the Biaevaluation software. The affinity constant was calculated from the ratio of the rate constants (KD=kd/kₐ).

The target of assay [6] is T1, human Fn14, full-length, expressed on …. Briefly: FACS direct binding titration on surface human Fn14; value is C (midpoint) of the printed 4-P fit y=(A-D)/(1+(x/C)^B)+D, x in ng/ml.
Source text: as §1
Assay [7] concerns the target T4, soluble monomeric human Fn14 protein …. Briefly: SPR (Biacore), antibody amine-coupled on CM5, soluble monomeric human Fn14 0.3-30 nM as analyte, KD = kd/ka.
Procedure: as §2, §3, §4
The target of another assay is T5, mouse Fn14-mouse Fc (mouse, UniProt Q9CR75 28-80).
T5 construct: not shown: mouse Fc
Briefly: direct binding ELISA, mouse Fn14-mouse Fc coated at 2 µg/ml, HRP-goat anti-human IgG.

In assay [8] the target is T6, human Fn14 R56K, expressed on the cell surface (human, UniProt Q9NP84 28-129).
T6 construct: also called pYL397
Nature of the assay: FACS direct binding, cells expressing the huFn14 construct, MFI.
Source text: (§5) A panel of huFn14 point mutants was made by substituting Xenopus residues into the human sequence at a number positions by site-directed mutagenesis on the pEAG2121 template (EBV expression vector for huFn14): pYL391 T33Q, pYL392 S40R, pYL393 L65Q, pYL396 M50A, pYL397 R56K, pYL398 R56P (a more drastic substitution than the Xenopus change) and pYL399 H60K.

The target of assay [9] is T7, human Fn14 M50A, expressed on the cell surface (human, UniProt Q9NP84 28-129).
T7 construct: also called pYL396
Described as above.
Source text: as §5

The target in assay [10] is T3, rat Fn14, full-length, expressed on the …. Nature of the assay: direct binding FACS.
Source text: as §1, §5
The target in assay [11] is T8, mouse Fn14, full-length, expressed on the cell surface (mouse, UniProt Q9CR75 28-129).
T8 construct: also called murine Fn14; mu Fn14
Briefly: FACS direct binding titration on murine surface Fn14 (target per legend paragraph 91), MFI.
Source text: as §1

Assay [12] deals with T8, mouse Fn14, full-length, expressed on …. Nature of the assay: FACS titration on cells expressing surface Fn14, MFI against ng/ml anti-Fn14 mab.
Source text: as §1
Assay [13] concerns the target T9, human Fn14 T33Q, expressed on the cell surface (human, UniProt Q9NP84 28-129).
T9 construct: also called pYL391
Nature of the assay: FACS direct binding, cells expressing the huFn14 construct, MFI.
Source text: as §5

Assay [14] deals with T10, human Fn14 S40R, expressed on the cell surface (human, UniProt Q9NP84 28-129).
T10 construct: also called pYL392
Described as above.
Source text: as §5

Assay [15] concerns the target T11, human Fn14 W42A, expressed on the cell surface (human, UniProt Q9NP84 28-129).
T11 construct: also called huFn14 W42A; pEAG2251
The assay is described as above.
Source text: as §5

In assay [16] the target is T12, human Fn14 R56P, expressed on the cell surface (human, UniProt Q9NP84 28-129).
T12 construct: also called pYL398
Described as above.
Source text: as §5

The target of assay [17] is T13, human Fn14 L65Q, expressed on the cell surface (human, UniProt Q9NP84 28-129).
T13 construct: also called pYL393
Described as above.
Source text: as §5

Assay [18] has as its target T14, human Fn14 H60K, expressed on the cell surface (human, UniProt Q9NP84 28-129).
T14 construct: also called pYL399
Described as above.
Source text: as §5

Assay [19] addresses T7, human Fn14 M50A, expressed on the cell …. Described as above. The source holds these as a separate data set.
Source text: as §5
Assay [20] deals with T15, cynomolgus monkey Fn14, full-length, expressed on the cell surface (cynomolgus monkey, UniProt Q9NP84 28-129 (human entry)).
T15 construct: also called cyno Fn14; pEAG2120
Nature of the assay: FACS direct binding titration on surface Fn14, MFI.
Source text: as §1

Procedure for mouse Fn14-mouse Fc: 96 well ELISA plate was coated with 2 μg/ml of mouse Fn14-mouse Fc in sodium carbonate pH 9.5 overnight at 4° C. Plate was blocked with 3% BSA in PBS for 1 hour at room temperature.

B1: humanized P4A8 (H1/L2) huIgG1, kappa (antibody, V domains shown)
VH: QVQLVQSGAEVKKPGASVKVSCKGSGYTFTDYGMHWVRQAPGQGLEWMGVISTYNGYTNYNQKFKGRVTMTVDKSTSTAYMELRSLRSDDTAVYYCARAYYGNLYYAMDYWGQGTLVTVSS
VL: DIVLTQSPASLAVSLGQRATISCRASKSVSTSSYSYMHWYQQKPGQPPKLLIKYASNLESGVPARFSGSGSGTDFILNIHPMEEDDTAMYFCQHSRELPFTFGGGTKLEIKR
notes: One of the 'six versions of huP4A8' (two heavy chains by three light chains) expressed transiently in 293E cells; also called version of huP4A8 H1/L2
The molecule B1 gave an EC50 in assay [1] of 0.178 µg/mL. In assay [2], this molecule gave an IC50 of 0.0408 µg/mL.

B2: humanized P4A8 (H2/L1) huIgG1, kappa (antibody, V domains shown)
VH: QVQLVQSGAEVKKPGASVKVSCKGSGYTFTDYGMHWVRQAPGQGLEWIGVISTYNGYTNYNQKFKGRATMTVDKSTSTAYMELRSLRSDDTAVYYCARAYYGNLYYAMDYWGQGTLVTVSS
VL: DIVLTQSPASLAVSLGQRATISCRASKSVSTSSYSYMHWYQQKPGQPPKLLIKYASNLESGVPARFSGSGSGTDFSLNIHPMEEDDTAMYFCQHSRELPFTFGGGTKLEIKR
notes: One of the 'six versions of huP4A8'; also called version of huP4A8 H2/L1
Consider B2, for which the response in assay [1] was half-maximal at 0.175 µg/mL (EC50). Moreover, the IC50 in [2] was found to be 0.0275 µg/mL.

B3: humanized P4A8 (H2/L2) huIgG1, kappa (antibody, V domains shown)
VH: QVQLVQSGAEVKKPGASVKVSCKGSGYTFTDYGMHWVRQAPGQGLEWIGVISTYNGYTNYNQKFKGRATMTVDKSTSTAYMELRSLRSDDTAVYYCARAYYGNLYYAMDYWGQGTLVTVSS
VL: DIVLTQSPASLAVSLGQRATISCRASKSVSTSSYSYMHWYQQKPGQPPKLLIKYASNLESGVPARFSGSGSGTDFILNIHPMEEDDTAMYFCQHSRELPFTFGGGTKLEIKR
notes: One of the 'six versions of huP4A8'; also called version of huP4A8 H2/L2
In turn, B3 showed an EC50 in assay [1] of 0.179 µg/mL. The half-maximal inhibitory concentration (IC50) in assay [2] is 0.0326 µg/mL.

B4: humanized P4A8 (H2/L3) huIgG1, kappa (antibody, V domains shown)
VH: QVQLVQSGAEVKKPGASVKVSCKGSGYTFTDYGMHWVRQAPGQGLEWIGVISTYNGYTNYNQKFKGRATMTVDKSTSTAYMELRSLRSDDTAVYYCARAYYGNLYYAMDYWGQGTLVTVSS
VL: DIVLTQSPASLAVSLGQRATISCRASKSVSTSSYSYMHWYQQKPGQPPKLLIKYASNLESGVPARFSGSGSGTDFILNIHPMEEDDTATYYCQHSRELPFTFGGGTKLEIKR
notes: One of the 'six versions of huP4A8'; also called version of huP4A8 H2/L3
In turn, B4 yielded an EC50 in [1] of 0.175 µg/mL. Besides, the IC50 in [2] came out at 0.0357 µg/mL.

B5: humanized P4A8 (H1/L1) huIgG1, kappa (antibody)
heavy: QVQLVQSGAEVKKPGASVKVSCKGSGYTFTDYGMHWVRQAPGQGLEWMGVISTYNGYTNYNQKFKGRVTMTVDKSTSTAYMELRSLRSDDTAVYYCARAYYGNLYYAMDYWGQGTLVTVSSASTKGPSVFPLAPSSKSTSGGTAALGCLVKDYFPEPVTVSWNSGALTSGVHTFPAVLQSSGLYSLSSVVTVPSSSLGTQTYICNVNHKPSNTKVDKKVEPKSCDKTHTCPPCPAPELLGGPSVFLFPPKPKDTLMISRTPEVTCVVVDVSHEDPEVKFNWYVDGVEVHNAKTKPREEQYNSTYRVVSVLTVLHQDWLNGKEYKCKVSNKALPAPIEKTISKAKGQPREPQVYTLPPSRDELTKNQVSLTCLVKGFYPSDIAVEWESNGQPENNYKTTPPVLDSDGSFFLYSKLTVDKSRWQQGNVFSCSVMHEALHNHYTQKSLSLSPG
light: DIVLTQSPASLAVSLGQRATISCRASKSVSTSSYSYMHWYQQKPGQPPKLLIKYASNLESGVPARFSGSGSGTDFSLNIHPMEEDDTAMYFCQHSRELPFTFGGGTKLEIKRTVAAPSVFIFPPSDEQLKSGTASVVCLLNNFYPREAKVQWKVDNALQSGNSQESVTEQDSKDSTYSLSSTLTLSKADYEKHKVYACEVTHQGLSSPVTKSFNRGEC
notes: H1 heavy chain (pYL310) with L1 kappa light chain (pYL321); also called huP4A8; hP4A8.IgG1
As for B5, the EC50 is 0.0586 µg/mL in [3]; 0.12 nM in [4]; 0.25 µg/mL in assay [1]; 0.0766 µg/mL in assay [6]; roughly 0.00679 µg/mL with mouse Fn14-mouse Fc. For the same molecule, the koff in assay [5] is 0.0029 s⁻¹ and 0.003 s⁻¹. Moreover, the kon in assay [5] is 1.7e+06 M⁻¹ s⁻¹ and 1.8e+06 M⁻¹ s⁻¹. For the same molecule, in assay [7], the Kd was 2.6 nM and 1.7 nM. The IC50 in assay [2] turned out to be 0.0352 µg/mL.

B6: humanized P4A8 (H1/L3) huIgG1, kappa (antibody, V domains shown)
VH: QVQLVQSGAEVKKPGASVKVSCKGSGYTFTDYGMHWVRQAPGQGLEWMGVISTYNGYTNYNQKFKGRVTMTVDKSTSTAYMELRSLRSDDTAVYYCARAYYGNLYYAMDYWGQGTLVTVSS
VL: DIVLTQSPASLAVSLGQRATISCRASKSVSTSSYSYMHWYQQKPGQPPKLLIKYASNLESGVPARFSGSGSGTDFILNIHPMEEDDTATYYCQHSRELPFTFGGGTKLEIKR
notes: One of the 'six versions of huP4A8'; also called version of huP4A8 H1/L3
For the molecule B6, the EC50 in assay [1] amounted to 0.172 µg/mL. Besides, the IC50 in [2] amounted to 0.0316 µg/mL.

B7: humanized P4A8 (H1/L1) aglycosylated S228P/T299A huIgG4, kappa (antibody)
heavy: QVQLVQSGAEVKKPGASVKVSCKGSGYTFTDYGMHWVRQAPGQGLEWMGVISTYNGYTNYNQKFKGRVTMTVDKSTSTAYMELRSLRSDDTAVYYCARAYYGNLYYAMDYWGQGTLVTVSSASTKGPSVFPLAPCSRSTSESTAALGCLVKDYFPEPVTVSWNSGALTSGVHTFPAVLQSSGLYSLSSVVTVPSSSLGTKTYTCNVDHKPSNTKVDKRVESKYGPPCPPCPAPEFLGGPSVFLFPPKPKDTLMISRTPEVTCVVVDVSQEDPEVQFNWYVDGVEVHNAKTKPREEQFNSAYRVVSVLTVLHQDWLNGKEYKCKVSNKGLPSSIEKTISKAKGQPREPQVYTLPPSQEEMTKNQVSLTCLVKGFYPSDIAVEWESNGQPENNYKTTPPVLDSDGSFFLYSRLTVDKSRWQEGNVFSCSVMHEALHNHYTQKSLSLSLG
light: DIVLTQSPASLAVSLGQRATISCRASKSVSTSSYSYMHWYQQKPGQPPKLLIKYASNLESGVPARFSGSGSGTDFSLNIHPMEEDDTAMYFCQHSRELPFTFGGGTKLEIKRTVAAPSVFIFPPSDEQLKSGTASVVCLLNNFYPREAKVQWKVDNALQSGNSQESVTEQDSKDSTYSLSSTLTLSKADYEKHKVYACEVTHQGLSSPVTKSFNRGEC
notes: also called huP4A8-aglyG4P; hP4A8.IgG4Pagly
The molecule B7 displayed an EC50 in [3] of 0.0721 µg/mL. For the same molecule, in assay [5], the koff is 0.0029 s⁻¹ and 0.0047 s⁻¹; the kon was 2e+06 M⁻¹ s⁻¹ and 2.9e+06 M⁻¹ s⁻¹. The EC50 in [6] stood at 0.0916 µg/mL. The Kd in assay [7] is 3.4 nM and 2.2 nM.

B8: monoclonal antibody 1.P4A8.3C7 (P4A8), murine (antibody, V domains shown)
VH: QVQLQQSGPEVVRPGVSVKISCKGSGYTFTDYGMHWVKQSHAKSLEWIGVISTYNGYTNYNQKFKGKATMTVDKSSSTAYMELARLTSEDSAIYYCARAYYGNLYYAMDYWGQGTSVTVSS
VL: DIVLTQSPASLAVSLGQRATISCRASKSVSTSSYSYMHWYQQKPGQPPKLLIKYASNLESGVPARFSGSGSGTDFILNIHPVEEEDAATYYCQHSRELPFTFGSGTKLEIK
notes: Mouse hybridoma mAb (ATCC PTA-9947); also called muP4A8; murine P4A8 mAb
On to B8, for which the binding result in assay [8] and in [9] was “binds” in each case.

B9: monoclonal antibody P3D8, murine (antibody, V domains shown)
VH: not shown
VL: DIVLTQSPASLAVSLGQRATISCRASKSVSTSSYSYMHWYQQKPGQPPKLLIKYTSNLESGVPARFSGSGSGTDFILNIHPVEEEDAATYYCQHSRELPWTFGGGTKLEIK
Regarding B9, the binding result in [10] is recorded as “binds”. The molecule also displayed an EC50 in assay [11] of 0.00238 µg/mL.

B10: monoclonal antibody 1.P2D3.3D5 (P2D3), murine (antibody, V domains shown)
VH: not shown
VL: DIVLTQSPASLAVSLGQRATISCRASKSVSTSSYSYMHWYQQKPGQPPKLLIKYTSNLESGVPARFSGSGSGTDFILNIHPVEEEDAATYYCQHSRELPWTFGGGTKLEIK
notes: Mouse hybridoma mAb (ATCC PTA-9948)
For B10, in [10], the binding result is recorded as “binds”. Also, the EC50 was 0.00478 µg/mL in [12] and 0.00226 µg/mL in assay [11].

B11: monoclonal antibody 1.P3G5.1E4 (P3G5), murine (antibody, V domains shown)
VH: QVQLQQSGPEVVRPGVSVKISCKGSGYTFTDYGIHWVKQSHAKSLEWIGVISTYNGYTNYNQKFKGKATMTVDKSSSTAYMELARLTSEDSAIYYCARAYYGNLYYAMDYWGQGTSVTVSS
VL: DIVLTQSPASLAVSLGQRATISCRANKSVSTSSYSYMHWYQQKPGQPPKLLIKYASNLESGVPARFSGSGSGTDFILNIHPVEEEDAATYYCQHSRELPFTFGSGTKLEIK
notes: Mouse hybridoma mAb (ATCC PTA-9949)
Consider B11, for which the binding result in [13], in [14], in assay [15], in [16], in assay [17] and in assay [18] was “binds” in each case. Further, the binding result in assay [19] and in [10] was “binds” each time. The values for the EC50 in assay [20] and in assay [11] were 0.00119 µg/mL and 0.00201 µg/mL, respectively.

Broadly, the EC50 is the concentration giving half of the maximal effect. Usually IC50 stands for the concentration needed to halve the response being measured. The term koff denotes the rate constant with which the complex falls apart. As usually defined, the kon is the second-order rate constant of association. As a reminder, the Kd is a measure of binding affinity in units of concentration.
